The text below walks through data of US20160195533.

The target in data set [1] is Flag-tagged Snail1 (pCMV-Tag2B N-terminal Flag-tagged Snail1 expression vector, Addgene).
The target in data set [2] is Strep-tagged Snail1 (pEXPR-IBA105-Snail1).
Data set [3] deals with Snail1, endogenous protein of A549, HCC44, HEK293T or H1299 cells.
Chain of Snail1, endogenous protein of A549, HCC44, HEK293T or H1299 cells (chain, as listed by the source): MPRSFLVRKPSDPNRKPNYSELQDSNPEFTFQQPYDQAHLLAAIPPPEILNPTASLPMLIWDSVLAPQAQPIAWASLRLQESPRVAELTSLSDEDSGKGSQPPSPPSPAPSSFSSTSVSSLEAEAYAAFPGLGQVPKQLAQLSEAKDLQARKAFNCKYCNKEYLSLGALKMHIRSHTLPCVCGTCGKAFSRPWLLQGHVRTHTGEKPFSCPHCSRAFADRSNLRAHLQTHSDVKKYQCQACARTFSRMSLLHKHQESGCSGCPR

Chain of Flag-tagged Snail1 (pCMV-Tag2B N-terminal Flag-tagged Snail1 expression vector, Addgene) (chain, as listed by the source): as above
Chain of Strep-tagged Snail1 (pEXPR-IBA105-Snail1) (chain, as listed by the source): as above

B1: Strep-tagged WHEP-PRS domain of EPRS (pEXPR-IBA105-PRS) (protein)
chain: VEATKNETSAPFKERPTPSLNNNCTTSEDSLVLYNRVAVQGDVVRELKAKKAPKEDVDAAVKQLLSLKAEYKEKTGQEYKPGNPPAEIGQNISSNSSASILESKSLYDEVAAQGEVVRKLKAEKSPKAKINEAVECLLSLKAQYKEKTGKEYIPGQPPLSQSSDSSPTRNSEPAGLETPEAKVLFDKVASQGEVVRKLKTEKAPKDQVDIAVQELLQLKAQYKSLIGVEYKPVSATGAEDKDKKKKEKENKSEKQNKPQKQNDGQRKDPSKNQGGGLSSSGAGEGQGPKKQTRLGLEAKKEENLADWYSQVITKSEMIEYHDISGCYILRPWAYAIWEAIKDFFDAEIKKLGVENCYFPMFVSQSALEKEKTHVADFAPEVAWVTRSGKTELAEPIAIRPTSETVMYPAYAKWVQSHRDLPIKLNQWCNVVRWEFKHPQPFLRTREFLWQEGHSAFATMEEAAEEVLQILDLYAQVYEELLAIPVVKGRKTEKEKFAGGDYTTTIEAFISASGRAIQGGTSHHLGQNFSKMFEIVFEDPKIPGEKQFAYQNSWGLTTRTIGVMTMVHGDNMGLVLPPRVACVQVVIIPCGITNALSEEDKEALIAKCNDYRRRLLSVNIRVRADLRDNYSPGWKFNHWELKGVPIRLEVGPRDMKSCQFVAVRRDTGEKLTVAENEAETKLQAILEDIQVTLFTRASEDLKTHMVVANTMEDFQKILDSGKIVQIPFCGEIDCEDWIKKTTARDQDLEPGAPSMGAKSLCIPFKPLCELQPGAKCVCGKNPAKYYTLFGRSY
Consider B1, for which, in data set [1], the “Snail1 stability, anti-Flag immunoblot (HEK293T)” value was “the WHEP-PRS fragment rather than ERS-WHEP fragment in the EPRS more contributed to the Snail1 stability”.

B2: 2× Strep-tagged EPRS (pEXPR-2×IBA105-EPRS) (protein)
chain: MATLSLTVNSGDPPLGALLAVEHVKDDVSISVEEGKENILHVSENVIFTDVNSILRYLARVATTAGLYGSNLMEHTEIDHWLEFSATKLSSCDSFTSTINELNHCLSLRTYLVGNSLSLADLCVWATLKGNAAWQEQLKQKKAPVHVKRWFGFLEAQQAFQSVGTKWDVSTTKARVAPEKKQDVGKFVELPGAEMGKVTVRFPPEASGYLHIGHAKAALLNQHYQVNFKGKLIMRFDDTNPEKEKEDFEKVILEDVAMLHIKPDQFTYTSDHFETIMKYAEKLIQEGKAYVDDTPAEQMKAEREQRIDSKHRKNPIEKNLQMWEEMKKGSQFGQSCCLRAKIDMSSNNGCMRDPTLYRCKIQPHPRTGNKYNVYPTYDFACPIVDSIEGVTHALRTTEYHDRDEQFYWIIEALGIRKPYIWEYSRLNLNNTVLSKRKLTWFVNEGLVDGWDDPRFPTVRGVLRRGMTVEGLKQFIAAQGSSRSVVNMEWDKIWAFNKKVIDPVAPRYVALLKKEVIPVNVPEAQEEMKEVAKHPKNPEVGLKPVWYSPKVFIEGADAETFSEGEMVTFINWGNLNITKIHKNADGKIISLDAKLNLENKDYKKTTKVTWLAETTHALPIPVICVTYEHLITKPVLGKDEDFKQYVNKNSKHEELMLGDPCLKDLKKGDIIQLQRRGFFICDQPYEPVSPYSCKEAPCVLIYIPDGHTKEMPTSGSKEKTKVEATKNETSAPFKERPTPSLNNNCTTSEDSLVLYNRVAVQGDVVRELKAKKAPKEDVDAAVKQLLSLKAEYKEKTGQEYKPGNPPAEIGQNISSNSSASILESKSLYDEVAAQGEVVRKLKAEKSPKAKINEAVECLLSLKAQYKEKTGKEYIPGQPPLSQSSDSSPTRNSEPAGLETPEAKVLFDKVASQGEVVRKLKTEKAPKDQVDIAVQELLQLKAQYKSLIGVEYKPVSATGAEDKDKKKKEKENKSEKQNKPQKQNDGQRKDPSKNQGGGLSSSGAGEGQGPKKQTRLGLEAKKEENLADWYSQVITKSEMIEYHDISGCYILRPWAYAIWEAIKDFFDAEIKKLGVENCYFPMFVSQSALEKEKTHVADFAPEVAWVTRSGKTELAEPIAIRPTSETVMYPAYAKWVQSHRDLPIKLNQWCNVVRWEFKHPQPFLRTREFLWQEGHSAFATMEEAAEEVLQILDLYAQVYEELLAIPVVKGRKTEKEKFAGGDYTTTIEAFISASGRAIQGGTSHHLGQNFSKMFEIVFEDPKIPGEKQFAYQNSWGLTTRTIGVMTMVHGDNMGLVLPPRVACVQVVIIPCGITNALSEEDKEALIAKCNDYRRRLLSVNIRVRADLRDNYSPGWKFNHWELKGVPIRLEVGPRDMKSCQFVAVRRDTGEKLTVAENEAETKLQAILEDIQVTLFTRASEDLKTHMVVANTMEDFQKILDSGKIVQIPFCGEIDCEDWIKKTTARDQDLEPGAPSMGAKSLCIPFKPLCELQPGAKCVCGKNPAKYYTLFGRSY
For B2, in data set [1], the “protein expression level of Snail1, anti-Flag immunoblot (HEK293T)” value is listed as “the protein expression level of Snail1 increased more when overexpressed together with EPRS through co-transfection than when overexpressed alone”.

B3: Flag-tagged EPRS (human Flag-tagged EPRS expression vector, Origene) (protein)
chain: B2 chain
For the protein B3, the “ubiquitination of Snail1 (streptavidin pull-down, anti-HA immunoblot)” value in data set [2] is on record as “the ubiquitination was reduced in the EPRS overexpressed experimental group”.

B4: glutamyl-prolyl-tRNA synthetase (EPRS), endogenous protein of A549 or HEK293T cells (protein)
chain: B2 chain
On to B4, for which the “EMT markers after EPRS knock-down (immunoblot, A549)” value in data set [3] is “at the time of EPRS knock-down, the Snail1 and p-SMAD3 was reduced and the E-cadherin was increased. This indicates that the EMT progress was suppressed”.

B5: Strep-tagged ERS-WHEP domain of EPRS (pEXPR-IBA105-ERS) (protein)
chain: MATLSLTVNSGDPPLGALLAVEHVKDDVSISVEEGKENILHVSENVIFTDVNSILRYLARVATTAGLYGSNLMEHTEIDHWLEFSATKLSSCDSFTSTINELNHCLSLRTYLVGNSLSLADLCVWATLKGNAAWQEQLKQKKAPVHVKRWFGFLEAQQAFQSVGTKWDVSTTKARVAPEKKQDVGKFVELPGAEMGKVTVRFPPEASGYLHIGHAKAALLNQHYQVNFKGKLIMRFDDTNPEKEKEDFEKVILEDVAMLHIKPDQFTYTSDHFETIMKYAEKLIQEGKAYVDDTPAEQMKAEREQRIDSKHRKNPIEKNLQMWEEMKKGSQFGQSCCLRAKIDMSSNNGCMRDPTLYRCKIQPHPRTGNKYNVYPTYDFACPIVDSIEGVTHALRTTEYHDRDEQFYWIIEALGIRKPYIWEYSRLNLNNTVLSKRKLTWFVNEGLVDGWDDPRFPTVRGVLRRGMTVEGLKQFIAAQGSSRSVVNMEWDKIWAFNKKVIDPVAPRYVALLKKEVIPVNVPEAQEEMKEVAKHPKNPEVGLKPVWYSPKVFIEGADAETFSEGEMVTFINWGNLNITKIHKNADGKIISLDAKLNLENKDYKKTTKVTWLAETTHALPIPVICVTYEHLITKPVLGKDEDFKQYVNKNSKHEELMLGDPCLKDLKKGDIIQLQRRGFFICDQPYEPVSPYSCKEAPCVLIYIPDGHTKEMPTSGSKEKTKVEATKNETSAPFKERPTPSLNNNCTTSEDSLVLYNRVAVQGDVVRELKAKKAPKEDVDAAVKQLLSLKAEYKEKTGQEYKPGNPPAEIGQNISSNSSASILESKSLYDEVAAQGEVVRKLKAEKSPKAKINEAVECLLSLKAQYKEKTGKEYIPGQPPLSQSSDSSPTRNSEPAGLETPEAKVLFDKVASQGEVVRKLKTEKAPKDQVDIAVQELLQLKAQYKSLIGVEYKPVSATGAEDKDKKKKEKENKSEKQNKPQKQNDGQRKDPSKNQGGGLSSS
With B5, in data set [1], the “Snail1 stability, anti-Flag immunoblot (HEK293T)” value was “the WHEP-PRS fragment rather than ERS-WHEP fragment in the EPRS more contributed to the Snail1 stability”.
